Earlier results in publication PMC9369280.

What was measured:
Assay in all cases: SPR
[1] = target: FGFR2 (Homo sapiens) (UniProt P21802)
[2] = target: FGF-1 (Homo sapiens) (UniProt P05230)
[3] = target: FGF-2 (Homo sapiens) (UniProt P09038)
Chain of UniProt P09038 (P09038 143-288): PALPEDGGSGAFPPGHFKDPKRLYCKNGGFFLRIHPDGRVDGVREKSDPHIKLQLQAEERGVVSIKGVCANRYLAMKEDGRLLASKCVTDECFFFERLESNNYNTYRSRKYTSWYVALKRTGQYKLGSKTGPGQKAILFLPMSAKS

Chain of UniProt P21802 (P21802 22-377): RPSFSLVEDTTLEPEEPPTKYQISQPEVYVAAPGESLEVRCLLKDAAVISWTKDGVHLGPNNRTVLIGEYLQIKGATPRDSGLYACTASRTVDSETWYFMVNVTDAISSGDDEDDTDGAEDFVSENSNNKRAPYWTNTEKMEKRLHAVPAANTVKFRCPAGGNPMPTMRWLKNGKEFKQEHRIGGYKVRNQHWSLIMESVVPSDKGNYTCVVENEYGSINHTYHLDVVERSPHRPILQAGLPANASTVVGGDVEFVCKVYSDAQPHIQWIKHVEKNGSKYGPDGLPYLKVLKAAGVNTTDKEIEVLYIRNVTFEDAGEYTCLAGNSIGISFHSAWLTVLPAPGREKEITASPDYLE
Chain of UniProt P05230 (P05230 16-155): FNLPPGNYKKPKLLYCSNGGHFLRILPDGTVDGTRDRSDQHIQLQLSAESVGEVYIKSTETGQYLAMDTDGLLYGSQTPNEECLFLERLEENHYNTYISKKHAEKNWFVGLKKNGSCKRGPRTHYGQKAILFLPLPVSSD

CCN2 (from UniProt P29279)
Kd [1]: 7.91 nM
Kd [2]: 3.98 nM
Kd [3]: 5.5 nM
